Experimental data from article PMC9490039 (iScience, 2022).

Target: Kv7.2 wt (wild-type Kv7.2 channel subunit), tagged with EGFP or with mKate2 (human, UniProt O43526-1 1-872)
Assay: FRET or BRET

B1: Kv7.2mut-EGFP (Kv7.2 with in-frame deletion of histidine 260) (natural protein)
chain: MVQKSRNGGVYPGPSGEKKLKVGFVGLDPGAPDSTRDGALLIAGSEAPKRGSILSKPRAGGAGAGKPPKRNAFYRKLQNFLYNVLERPRGWAFIYHAYVFLLVFSCLVLSVFSTIKEYEKSSEGALYILEIVTIVVFGVEYFVRIWAAGCCCRYRGWRGRLKFARKPFCVIDIMVLIASIAVLAAGSQGNVFATSALRSLRFLQILRMIRMDRRGGTWKLLGSVVYAHSKELVTAWYIGFLCLILASFLVYLAEKGENDFDTYADALWWGLITLTTIGYGDKYPQTWNGRLLAATFTLIGVSFFALPAGILGSGFALKVQEQHRQKHFEKRRNPAAGLIQSAWRFYATNLSRTDLHSTWQYYERTVTVPMYSSQTQTYGASRLIPPLNQLELLRNLKSKSGLAFRKDPPPEPSPSKGSPCRGPLCGCCPGRSSQKVSLKDRVFSSPRGVAAKGKGSPQAQTVRRSPSADQSLEDSPSKVPKSWSFGDRSRARQAFRIKGAASRQNSEEASLPGEDIVDDKSCPCEFVTEDLTPGLKVSIRAVCVMRFLVSKRKFKESLRPYDVMDVIEQYSAGHLDMLSRIKSLQSRVDQIVGRGPAITDKDRTKGPAEAELPEDPSMMGRLGKVEKQVLSMEKKLDFLVNIYMQRMGIPPTETEAYFGAKEPEPAPPYHSPEDSREHVDRHGCIVKIVRSSSSTGQKNFSAPPAAPPVQCPPSTSWQPQSHPRQGHGTSPVGDHGSLVRIPPPPAHERSLSAYGGGNRASMEFLRQEDTPGCRPPEGNLRDSDTSISIPSVDHEELERSFSGFSISQSKENLDALNSCYAAVAPCAKVRPYIAEGESDTDSDLCTPCGPPPRSATGEGPFGDVGWAGPRK
increase of EGFP intensity after photobleaching mKate2 (FRET): 12.1%
